According to patent US7148053 (BASF AKTIENGESELLSCHAFT, dated 2006):
Positions of bridges follow the written chain, without caps; N, C: chain ends. No end group written: not given here. *: point of attachment. 125I = [125I]*

Tests used:
rat CCKB receptor (rat) = rat CCKB receptor (rat) (UniProt P30553); test: cell-based or functional assay
[1] = target: yeast Gβγ (Saccharomyces cerevisiae) (UniProt P18851); test: cell-based or functional assay
[2] = target: human GRF receptor (human) (UniProt Q02643); test: cell-based or functional assay
[3] = target: T1, rat SSTR2 somatostatin receptor subtype (rat, UniProt P30680 1-369); test: radioligand saturation binding, yeast membranes coexpressing Scg1/Gαi2
T1 construct: whole, on cells; Tested in yeast cells or crude yeast membranes; also called somatostatin receptor subtype 2
T1 sequence (P30680 whole entry): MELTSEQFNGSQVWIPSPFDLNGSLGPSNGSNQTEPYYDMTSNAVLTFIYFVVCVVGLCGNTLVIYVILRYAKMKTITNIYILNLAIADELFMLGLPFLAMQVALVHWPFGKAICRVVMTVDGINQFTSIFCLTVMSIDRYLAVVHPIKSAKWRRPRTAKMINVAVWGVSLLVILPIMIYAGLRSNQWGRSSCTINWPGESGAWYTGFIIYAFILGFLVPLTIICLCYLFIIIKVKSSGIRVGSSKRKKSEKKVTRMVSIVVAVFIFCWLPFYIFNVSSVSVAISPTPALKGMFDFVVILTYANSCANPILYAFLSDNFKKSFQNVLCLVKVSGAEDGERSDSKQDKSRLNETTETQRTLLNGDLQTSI

human GRF receptor (human), sequence (Q02643 23-423): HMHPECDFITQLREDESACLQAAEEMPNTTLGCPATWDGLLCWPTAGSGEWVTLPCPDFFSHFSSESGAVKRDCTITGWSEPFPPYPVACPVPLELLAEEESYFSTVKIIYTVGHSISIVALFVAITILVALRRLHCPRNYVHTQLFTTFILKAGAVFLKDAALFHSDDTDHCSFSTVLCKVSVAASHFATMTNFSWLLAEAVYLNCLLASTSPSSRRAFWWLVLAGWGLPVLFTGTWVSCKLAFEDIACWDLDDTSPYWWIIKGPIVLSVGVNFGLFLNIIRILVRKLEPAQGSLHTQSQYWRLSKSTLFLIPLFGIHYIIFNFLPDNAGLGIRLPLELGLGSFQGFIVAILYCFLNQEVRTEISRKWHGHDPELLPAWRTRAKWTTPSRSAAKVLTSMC
rat CCKB receptor (rat), sequence (P30553 whole entry): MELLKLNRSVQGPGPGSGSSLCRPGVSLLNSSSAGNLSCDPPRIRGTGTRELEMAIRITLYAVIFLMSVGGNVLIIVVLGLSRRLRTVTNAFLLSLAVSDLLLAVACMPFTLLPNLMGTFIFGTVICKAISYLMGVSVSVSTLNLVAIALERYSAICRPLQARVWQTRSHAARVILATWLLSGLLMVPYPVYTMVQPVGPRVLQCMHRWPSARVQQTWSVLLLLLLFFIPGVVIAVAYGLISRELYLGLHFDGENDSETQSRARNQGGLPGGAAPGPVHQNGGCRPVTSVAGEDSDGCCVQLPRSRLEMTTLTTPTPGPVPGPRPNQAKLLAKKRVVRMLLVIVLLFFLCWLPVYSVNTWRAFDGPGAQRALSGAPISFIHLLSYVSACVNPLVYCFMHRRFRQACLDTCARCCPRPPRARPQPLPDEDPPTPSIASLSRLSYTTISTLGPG
yeast Gβγ (Saccharomyces cerevisiae), sequence (P18851 whole entry, chain 1 of 2): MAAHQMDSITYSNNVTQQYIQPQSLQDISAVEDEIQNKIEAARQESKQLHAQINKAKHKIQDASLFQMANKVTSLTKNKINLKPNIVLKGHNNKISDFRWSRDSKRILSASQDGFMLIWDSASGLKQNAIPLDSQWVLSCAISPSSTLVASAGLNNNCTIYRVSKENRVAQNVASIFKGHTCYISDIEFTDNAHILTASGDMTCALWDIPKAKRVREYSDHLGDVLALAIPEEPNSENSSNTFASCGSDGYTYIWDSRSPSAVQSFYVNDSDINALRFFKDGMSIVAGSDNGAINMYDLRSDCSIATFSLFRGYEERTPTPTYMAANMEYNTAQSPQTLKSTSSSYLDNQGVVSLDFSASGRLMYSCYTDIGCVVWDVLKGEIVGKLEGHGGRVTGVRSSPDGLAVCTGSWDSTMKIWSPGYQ
yeast Gβγ (Saccharomyces cerevisiae), sequence (P18852 1-107, chain 2 of 2, further chain): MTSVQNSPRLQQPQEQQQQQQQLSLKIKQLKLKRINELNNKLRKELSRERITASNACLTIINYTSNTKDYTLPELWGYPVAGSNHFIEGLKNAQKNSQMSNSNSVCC

“CCK-4 (from UniProt P06307 100-103) (peptide)” gave a growth response, agar plate bioassay, strains LY628 and LY631 (rat CCKB receptor (rat)) of 10 µg.

Work on rat Gαi2 (from UniProt P04897 2-355) yielded a reduction of pheromone-induced FUS1-lacZ signaling, CEN plasmid [1] of 16%.

Molecule “hGRF (1-29)-NH2 (from UniProt P01286 32-60) (peptide)” has a growth response, agar plate bioassay, strain CY990 [2] of 20 nmol.

B1: [^125I-tyr^11]-somatostatin 14 (peptide)
chain: AGCKNFFWKTY(125I)TSC
modifications: disulfide 3-14 (inferred); ends not checked
With B1 the Kd [3] was 600 pM.
